Experimental data reported in patent US9789203B2, “cKIT antibody drug conjugates” (Novartis AG, priority 2013, dated 2017).

T1: mouse cKIT ECD (Mus musculus, UniProt P05532)
T1 construct: 3.125-50 nM of cKIT receptor extracellular domains (ECD) were diluted in a 2-fold series
T1 sequence (P05532 25-527 limits assumed): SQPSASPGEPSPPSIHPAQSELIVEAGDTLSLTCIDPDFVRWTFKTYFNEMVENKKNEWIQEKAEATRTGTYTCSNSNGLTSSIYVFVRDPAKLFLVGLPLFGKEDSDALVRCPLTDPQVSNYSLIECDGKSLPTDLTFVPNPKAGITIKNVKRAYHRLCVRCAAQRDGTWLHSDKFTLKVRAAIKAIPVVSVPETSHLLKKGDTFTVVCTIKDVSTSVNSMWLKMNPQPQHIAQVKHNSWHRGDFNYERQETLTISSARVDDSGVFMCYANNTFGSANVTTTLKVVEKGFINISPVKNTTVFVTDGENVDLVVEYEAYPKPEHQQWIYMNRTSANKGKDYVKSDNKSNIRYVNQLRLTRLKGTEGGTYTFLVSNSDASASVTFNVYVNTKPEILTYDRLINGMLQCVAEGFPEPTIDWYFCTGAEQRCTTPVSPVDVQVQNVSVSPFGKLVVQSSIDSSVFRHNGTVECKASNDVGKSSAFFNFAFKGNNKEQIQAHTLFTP


Experiments:
[1] = system: HAMLX5343 systemic primary AML xenograft; settings: mouse, in vivo, ip
Method: (§4) Female NSG mice were implanted systemically (via tail vein injection) with 5×10^6 cells in phosphate buffered saline.
(§5) Leukemic burden was measured by flow cytometry. Weekly, blood was collected from all study animals via the tail. […] The stained cells were analyzed on a FACS Canto flow cytometer (BD Biosciences) (FIG. 52A). Body weights were measured twice weekly (FIG. 52B).

[2] = system: HAMLX5343 systemic primary AML xenograft; test: In vivo efficacy, HAMLX5343 systemic primary AML xenograft
Method: as §4, §5

GIST cell lines = settings: Edris et al. 2013; cited from earlier work
Uke-1 cells = test: ADCC activity in vitro (Calcein release, NK3.3 effector cells); assay type: cell-based, human; settings: Uke-1 target cells, NK3.3 effector cells 20 to 1, FIG. 17
Method: In brief, Uke-1 cells were stained with Calcein acetoxy-methyl ester (Calcein-AM; Sigma-Aldrich catalog #17783-5MG, St. Louis, Mo.), washed twice, pipetted into a 96-well microtiterplate (96 well, U-bottomed, clear plastic; Corning Costar, catalog #650 160, Tewksbury, Mass.) at a concentration of 5000 cells per well and pre-incubated for 10 min with a serial dilution of the above mentioned antibodies and proteins (from 50,000 to 0.003 μg per ml) before adding the effector NK3.3 cells for 1 hour in an effector to target ratio of 20 to 1. In order to calculate the antibody specific lysis of the target cells, a parallel incubation of target cells only without antibody or effector cells served as a baseline and negative control, whereas the positive control or maximal lysis or hundred percent specific lysis was determined by lysis of target cells only with a 1% Triton-X 100 solution. […] Following a co-incubation of target and effector cells, the microtiterplate was centrifuged and an aliquot of the supernatant fluid was transferred to another microtiterplate (96 well, flat-bottomed, black with clear bottom; (Corning Costar, catalog #3904, Tewksbury, Mass.) and the concentration of free Calcein in solution was determined with a fluorescence counter (Victor 3® multilabel counter, Perkin Elmer, Waltham, Mass.).

mouse cKIT ECD = biological target: T1, mouse cKIT ECD; test: SPR (Biacore 2000) affinity measurement; assay type: binding; settings: 25° C., antibody captured, ECD in solution
Method: (§1) Affinity of the antibodies to cKIT species orthologues and also to cKIT was determined using SPR technology using a Biacore® 2000 instrument (GE Healthcare, Pittsburgh, Pa.) and with CM5 sensor chips.
(§2) Briefly, HBS-P (0.01 M HEPES, pH 7.4, 0.15 M NaCl, 0.005% Surfactant P20) supplemented with 2% Odyssey® blocking buffer (Li-Cor Biosciences, Lincoln, Nebr.) was used as the running buffer for all the experiments. The immobilization level and analyte interactions were measured by response unit (RU). Pilot experiments were performed to test and confirm the feasibility of the immobilization of the anti-human Fc antibody (Catalog number BR100839, GE Healthcare, Pittsburgh, Pa.) and the capture of the test antibodies.
(§3) For kinetic measurements, the experiments were performed in which the antibodies were captured to the sensor chip surface via the immobilized anti-human Fc antibody and the ability of the cKIT proteins to bind in free solution was determined Briefly, 25 μg/ml of anti-human Fc antibody at pH 5 was immobilized on a CM5 sensor chip through amine coupling at flow rate of 5 μl/minute on all two flow cells to reach 10,500 RUs. 0.1-1 μg/ml of test antibodies were then injected at 10 μl/min for 1 minute. Captured levels of the antibodies were generally kept below 200 RUs. Subsequently, 3.125-50 nM of cKIT receptor extracellular domains (ECD) were diluted in a 2-fold series and injected at a flow rate of 40 μl/min for 3 min over both reference and test flow cells. Table of tested ECDs is listed below. Dissociation of the binding was followed for 10 min. After each injection cycle, the chip surface was regenerated with 3 M MgCl2 at 10 μl/min for 30 s.

rat cKIT ECD = test: SPR (Biacore 2000) affinity measurement; assay type: binding; settings: 25° C., antibody captured, ECD in solution
Method: as §1, §2, §3

SCF binding to cKIT = SCF binding to cKIT (Homo sapiens, UniProt P10721); test: Competition assays using ELISA and FACS, SCF binding to cKIT
[3] = system: GIST T1 subcutaneous tumor xenograft; settings: GIST T1, SCID-beige mice, single i.v. dose 10 mg/kg
Method: The anti-tumor activity of anti-cKIT ADCs was evaluated in several tumor xenograft models.

[4] = HAMLX5343, Day 71, 50 mg/kg Daily x 6 days, intraperitoneally

Sequence of rat cKIT ECD (as listed by the source): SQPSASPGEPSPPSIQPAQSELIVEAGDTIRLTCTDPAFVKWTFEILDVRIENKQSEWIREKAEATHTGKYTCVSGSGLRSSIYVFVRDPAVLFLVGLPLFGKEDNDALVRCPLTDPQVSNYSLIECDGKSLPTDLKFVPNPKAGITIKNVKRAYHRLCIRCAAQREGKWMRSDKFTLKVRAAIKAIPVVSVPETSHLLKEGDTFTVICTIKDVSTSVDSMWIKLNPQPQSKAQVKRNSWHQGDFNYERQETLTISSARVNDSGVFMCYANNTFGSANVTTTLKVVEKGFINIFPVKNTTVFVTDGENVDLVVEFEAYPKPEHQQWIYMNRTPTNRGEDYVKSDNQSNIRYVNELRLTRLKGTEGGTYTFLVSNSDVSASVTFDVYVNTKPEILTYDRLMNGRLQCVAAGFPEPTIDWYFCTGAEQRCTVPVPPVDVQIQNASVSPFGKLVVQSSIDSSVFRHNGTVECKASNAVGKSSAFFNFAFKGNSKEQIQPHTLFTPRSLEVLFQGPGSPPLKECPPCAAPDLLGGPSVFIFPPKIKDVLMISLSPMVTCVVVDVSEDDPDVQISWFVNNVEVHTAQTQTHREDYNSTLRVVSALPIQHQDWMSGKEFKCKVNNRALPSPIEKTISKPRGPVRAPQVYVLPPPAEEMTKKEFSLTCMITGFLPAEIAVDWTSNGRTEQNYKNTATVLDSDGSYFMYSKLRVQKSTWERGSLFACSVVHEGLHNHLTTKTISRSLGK
Sequence of SCF binding to cKIT (P10721 26-976): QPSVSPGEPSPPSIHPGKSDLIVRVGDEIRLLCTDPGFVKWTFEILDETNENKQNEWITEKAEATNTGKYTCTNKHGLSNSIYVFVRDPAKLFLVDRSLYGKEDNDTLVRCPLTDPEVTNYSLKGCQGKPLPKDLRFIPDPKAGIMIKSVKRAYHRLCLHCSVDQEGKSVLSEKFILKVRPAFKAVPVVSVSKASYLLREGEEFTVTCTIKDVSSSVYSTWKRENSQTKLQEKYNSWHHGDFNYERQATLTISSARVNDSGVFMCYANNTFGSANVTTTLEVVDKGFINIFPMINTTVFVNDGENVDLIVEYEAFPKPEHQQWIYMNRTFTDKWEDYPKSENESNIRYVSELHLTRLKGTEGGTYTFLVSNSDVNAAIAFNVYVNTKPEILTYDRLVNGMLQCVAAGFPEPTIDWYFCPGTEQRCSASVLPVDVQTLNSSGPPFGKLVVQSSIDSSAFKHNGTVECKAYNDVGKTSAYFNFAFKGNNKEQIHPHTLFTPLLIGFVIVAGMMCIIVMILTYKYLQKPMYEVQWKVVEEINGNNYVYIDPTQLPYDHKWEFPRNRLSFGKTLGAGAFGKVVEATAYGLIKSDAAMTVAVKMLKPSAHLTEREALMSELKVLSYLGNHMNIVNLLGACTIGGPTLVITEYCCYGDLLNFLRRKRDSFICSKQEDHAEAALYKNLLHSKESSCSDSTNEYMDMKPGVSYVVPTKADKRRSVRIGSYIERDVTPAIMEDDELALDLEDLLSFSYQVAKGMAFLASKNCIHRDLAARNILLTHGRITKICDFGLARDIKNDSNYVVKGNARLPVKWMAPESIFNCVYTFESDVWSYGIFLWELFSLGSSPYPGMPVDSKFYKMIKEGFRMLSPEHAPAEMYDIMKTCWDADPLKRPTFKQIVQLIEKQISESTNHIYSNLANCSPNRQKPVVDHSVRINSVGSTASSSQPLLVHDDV

Row | Molecule | Affinity mouse cKIT (mouse cKIT ECD) | Affinity to rat cKIT (rat cKIT ECD) | also measured
1 | Nc1ccn([C@@H]2O[C@H](CO)[C@@H](O)[C@@H]2O)c(=O)n1 [ARA-C, cytarabine, reference compound] |  |  | toxicity [1]: highly toxic; Mean change of body weight (from day 67) [2, 4]: 2.3 ± 2.3 % ± SEM; Mean change of tumor volume [2, 4]: −6.6 ± 2.1 % CD45 positive PBMC's ± SEM; Regression [2, 4]: −52.5%; antitumor activity (leukemic burden) ([2]; HAMLX5343, intraperitoneally daily for 6 days): efficacious in three of the animals; bodyweight loss ([2]; HAMLX5343, intraperitoneally daily for 6 days, three of six animals): > 20%
2 | Cc1ccc(NC(=O)c2ccc(CN3CCN(C)CC3)cc2)cc1Nc1nccc(-c2cccnc2)n1 [Imatinib] |  |  | cell proliferation (GIST cell lines): significantly reduce proliferation of GIST cell lines
3 | MabCampath [reference compound] |  |  | ADCC (Uke-1 cells): mediated ADCC killing of the target cells
4 | NEG026: anti-cKIT antibody of Table 1, VH SEQ ID NO 46, VL SEQ ID NO 55 (antibody, V domains shown) VH: EVQLVESGGGLVQPGGSLRLSCAASGFTFSDYYMAWVRQAPGKGLEWVANINQNTGSTYYVDSVQGRFTISRDNAKNSLYLQMNSLRAEDTAVYYCARGDYYGTTYWYFDVWGQGTTVTVSS VL: EIVMTQSPATLSLSPGERATLSCRASQDISNYLNWYQQKPGQAPRLLIYYTSRLQSGIPARFSGSGSGTDYTLTISSLEPEDFAVYYCQQGKKLWSFGGGTKVEIK | Not reactive | Not reactive | 
5 | NEG027: anti-cKIT antibody of Table 1, VH SEQ ID NO 64, VL SEQ ID NO 73 (antibody, V domains shown) VH: EVQLVESGGGLVQPGGSLRLSCAASGFTFSDYYMAWVRQAPGKGLEWVASINQNTGSTYYLDSVRGRFTISRDNAKNSLYLQMNSLRAEDTAVYYCARGDYYGTTYWYFDVWGQGTTVTVSS VL: EIVMTQSPATLSLSPGERATLSCRASQDISNYLNWYQQKPGQAPRLLIYYTSRLQSGIPARFSGSGSGTDYTLTISSLEPEDFAVYYCQQGKKLWSFGGGTKVEIK | Not reactive | Not reactive | 
6 | NEG087: anti-cKIT antibody of Table 1, VH SEQ ID NO 118, VL SEQ ID NO 127 (antibody, V domains shown) VH: EVQLVESGGGLVQPGGSLRLSCAASGFTFSDYYMAWVRQAPGKGLEWVASINQNTGSTYYLDSVRGRFTISRDNAKNSLYLQMNSLRAEDTAVYYCARGDYYGTTYWYFDVWGQGTTVTVSS VL: DIQMTQSPSSLSASVGDRVTITCRASQSISSYLNWYQQKPGKAPKLLIYYTSRLQSGVPSRFSGSGSGTDFTLTISSLQPEDFATYYCQQGRRLWSFGGGTKVEIK | Not reactive | Not reactive | 
7 | NEG086: anti-cKIT antibody of Table 1, VH SEQ ID NO 100, VL SEQ ID NO 109 (antibody, V domains shown) VH: EVQLVESGGGLVQPGGSLRLSCAASGFTFSDYYMAWVRQAPGKGLEWVANINQIAGSTYYVDSVQGRFTISRDNAKNSLYLQMNSLRAEDTAVYYCARGDYYGTTYWYFDVWGQGTTVTVSS VL: DIQMTQSPSSLSASVGDRVTITCRASQSISSYLNWYQQKPGKAPKLLIYYTSRLQSGVPSRFSGSGSGTDFTLTISSLQPEDFATYYCQQGRRLWSFGGGTKVEIK | Not reactive | Not reactive | 
8 | 9P3: hybridoma derived anti-cKIT antibody, VH SEQ ID NO.9, VL SEQ ID NO.18 (antibody, V domains shown) VH: EVRLVESEGGLVQPRSSMKLSCTASGFTFSDYYMAWVRQVPEKGLEWVANINYDGSSTYYLDSLKSRFIISRDNAKNILYLQMSSLKSEDTATYYCARGDYYGTTYWYFDVWGTGTTVTVSS VL: DIQMTQTTSSLSASLGDRVTISCRASQDISNYLNWYQQKPDGTVKLLIYYTSRLQSGVPSRFSGSGSGTDYSLTISNLEQEDIATYFCQQGKKLWSFGGGTKLEIKR | Not reactive | Not reactive | blocking of SCF binding to cKIT (SCF binding to cKIT): partial blocking; antitumor activity (tumor volume) [3]: Neither the control non-specific IgG1 ADCs nor the unconjugated 9P3 were efficacious
